Test system: Caskin2
Assay: GFP-Trap pulldown of Caskin2 by GFP-tagged Abi1 constructs in COS-7 cells
Assay type: binding
Conditions: western blot
Protocol: For transient expression, COS-7 cells were grown to 70% confluence in 10 cm culture dishes and transfected with plasmid DNAs using the DEAE–dextran method ([Schaapveld et al., 1998]). Briefly, 4.5 µg of plasmid DNA was mixed with 500 µg/ml DEAE–dextran in 2.5 ml PBS. Cells were washed two times with PBS and then incubated for 30 min at 37°C with the DEAE–dextran solution. Subsequently, 80 µM chloroquine was added to the cells in 10 ml DMEM with FCS and cells were incubated at 37°C for 3 h. After aspiration of the medium, the cells were treated with 3 ml of DMEM with FCS containing 10% DMSO for 2.5 min. The DMSO solution was then removed and replaced with fresh medium, after which the cells were further incubated for 48–72 h before analysis.
For analysis of protein in whole-cell lysates, cells were washed three times with cold PBS, lysed in Nonidet P-40 lysis buffer [20 mM Tris-HCl pH 7.5, 100 mM NaCl, 1% NP-40), supplemented with Na3VO4 (1.5 mM), NaF (15 mM), protease inhibitor cocktail (1:1000; Sigma-Aldrich) and phosphatase inhibitor cocktail 3 (1:100; Sigma-Aldrich)] and cleared by centrifugation at 14,000 g for 1 h at 4°C. […]
GFP-Trap pulldown experiments were performed as follows. Cleared lysates containing equal amounts of proteins, as determined by a Pierce™ BCA Protein Assay, were incubated with GFP-Trap agarose beads (Chromotek) in a rotation wheel for 6 h at 4°C. […]

B1: GFP–Abi1-DAWN: GFP-tagged Abi1 mutant harboring the mutations D453A and W455N (protein)
chain: MAELQMLLEEEIPSGKRALIESYQNLTRVADYCENNYIQATDKRKALEETKAYTTQSLASVAYQINALANNVLQLLDIQASQLRRMESSINHISQTVDIHKEKVARREIGILTTNKNTSRTHKIIAPANMERPVRYIRKPIDYTVLDDVGHGVKWLKAKHGNNQPARTGTLSRTNPPTQKPPSPPMSGRGTLGRNTPYKTLEPVKPPTVPNDYMTSPARLGSQHSPGRTASLNQRPRTHSGSSGGSGSRENSGSSSIGIPIAVPTPSPPTIGPAPGSAPGSQYGTMTRQISRHNSTTSSTSSGGYRRTPSVTAQFSAQPHVNGGPLYSQNSISIAPPPPPMPQLTPQIPLTGFVARVQENIADSPTPPPPPPPDDIPMFDDSPPPPPPPPVDYEDEEAAVVQYNDPYADGDPAWAPKNYIEKVVAIYDYTKDKDDELSFMEGAIIYVIKKNDAGNYEGVCNRVTGLFPGNYVESIMHYTD
modifications: left off: GFP, end not stated, kept
notes: GFP-tagged Abi1 mutant harboring the mutations D453A and W455N
Caskin2 precipitation by Abi1 construct: unable to precipitate Caskin2

— paper PMC11166458, “Caskin2 is a novel talin- and Abi1-binding protein that promotes cell motility” (Journal of Cell Science, 2024)
